Data as given in patent US20150283214A1.

Molecular target: α5β1 integrin on mouse embryonic fibronectin-null fibroblasts (mouse) (UniProt P11688)
Assay: cell-based or functional assay

Chain of Human plasma fibronectin, P02751 32-2477 (other; Alexa^488 label where used as FN^488) (P02751 other isoform, or with tags, fused parts or gaps): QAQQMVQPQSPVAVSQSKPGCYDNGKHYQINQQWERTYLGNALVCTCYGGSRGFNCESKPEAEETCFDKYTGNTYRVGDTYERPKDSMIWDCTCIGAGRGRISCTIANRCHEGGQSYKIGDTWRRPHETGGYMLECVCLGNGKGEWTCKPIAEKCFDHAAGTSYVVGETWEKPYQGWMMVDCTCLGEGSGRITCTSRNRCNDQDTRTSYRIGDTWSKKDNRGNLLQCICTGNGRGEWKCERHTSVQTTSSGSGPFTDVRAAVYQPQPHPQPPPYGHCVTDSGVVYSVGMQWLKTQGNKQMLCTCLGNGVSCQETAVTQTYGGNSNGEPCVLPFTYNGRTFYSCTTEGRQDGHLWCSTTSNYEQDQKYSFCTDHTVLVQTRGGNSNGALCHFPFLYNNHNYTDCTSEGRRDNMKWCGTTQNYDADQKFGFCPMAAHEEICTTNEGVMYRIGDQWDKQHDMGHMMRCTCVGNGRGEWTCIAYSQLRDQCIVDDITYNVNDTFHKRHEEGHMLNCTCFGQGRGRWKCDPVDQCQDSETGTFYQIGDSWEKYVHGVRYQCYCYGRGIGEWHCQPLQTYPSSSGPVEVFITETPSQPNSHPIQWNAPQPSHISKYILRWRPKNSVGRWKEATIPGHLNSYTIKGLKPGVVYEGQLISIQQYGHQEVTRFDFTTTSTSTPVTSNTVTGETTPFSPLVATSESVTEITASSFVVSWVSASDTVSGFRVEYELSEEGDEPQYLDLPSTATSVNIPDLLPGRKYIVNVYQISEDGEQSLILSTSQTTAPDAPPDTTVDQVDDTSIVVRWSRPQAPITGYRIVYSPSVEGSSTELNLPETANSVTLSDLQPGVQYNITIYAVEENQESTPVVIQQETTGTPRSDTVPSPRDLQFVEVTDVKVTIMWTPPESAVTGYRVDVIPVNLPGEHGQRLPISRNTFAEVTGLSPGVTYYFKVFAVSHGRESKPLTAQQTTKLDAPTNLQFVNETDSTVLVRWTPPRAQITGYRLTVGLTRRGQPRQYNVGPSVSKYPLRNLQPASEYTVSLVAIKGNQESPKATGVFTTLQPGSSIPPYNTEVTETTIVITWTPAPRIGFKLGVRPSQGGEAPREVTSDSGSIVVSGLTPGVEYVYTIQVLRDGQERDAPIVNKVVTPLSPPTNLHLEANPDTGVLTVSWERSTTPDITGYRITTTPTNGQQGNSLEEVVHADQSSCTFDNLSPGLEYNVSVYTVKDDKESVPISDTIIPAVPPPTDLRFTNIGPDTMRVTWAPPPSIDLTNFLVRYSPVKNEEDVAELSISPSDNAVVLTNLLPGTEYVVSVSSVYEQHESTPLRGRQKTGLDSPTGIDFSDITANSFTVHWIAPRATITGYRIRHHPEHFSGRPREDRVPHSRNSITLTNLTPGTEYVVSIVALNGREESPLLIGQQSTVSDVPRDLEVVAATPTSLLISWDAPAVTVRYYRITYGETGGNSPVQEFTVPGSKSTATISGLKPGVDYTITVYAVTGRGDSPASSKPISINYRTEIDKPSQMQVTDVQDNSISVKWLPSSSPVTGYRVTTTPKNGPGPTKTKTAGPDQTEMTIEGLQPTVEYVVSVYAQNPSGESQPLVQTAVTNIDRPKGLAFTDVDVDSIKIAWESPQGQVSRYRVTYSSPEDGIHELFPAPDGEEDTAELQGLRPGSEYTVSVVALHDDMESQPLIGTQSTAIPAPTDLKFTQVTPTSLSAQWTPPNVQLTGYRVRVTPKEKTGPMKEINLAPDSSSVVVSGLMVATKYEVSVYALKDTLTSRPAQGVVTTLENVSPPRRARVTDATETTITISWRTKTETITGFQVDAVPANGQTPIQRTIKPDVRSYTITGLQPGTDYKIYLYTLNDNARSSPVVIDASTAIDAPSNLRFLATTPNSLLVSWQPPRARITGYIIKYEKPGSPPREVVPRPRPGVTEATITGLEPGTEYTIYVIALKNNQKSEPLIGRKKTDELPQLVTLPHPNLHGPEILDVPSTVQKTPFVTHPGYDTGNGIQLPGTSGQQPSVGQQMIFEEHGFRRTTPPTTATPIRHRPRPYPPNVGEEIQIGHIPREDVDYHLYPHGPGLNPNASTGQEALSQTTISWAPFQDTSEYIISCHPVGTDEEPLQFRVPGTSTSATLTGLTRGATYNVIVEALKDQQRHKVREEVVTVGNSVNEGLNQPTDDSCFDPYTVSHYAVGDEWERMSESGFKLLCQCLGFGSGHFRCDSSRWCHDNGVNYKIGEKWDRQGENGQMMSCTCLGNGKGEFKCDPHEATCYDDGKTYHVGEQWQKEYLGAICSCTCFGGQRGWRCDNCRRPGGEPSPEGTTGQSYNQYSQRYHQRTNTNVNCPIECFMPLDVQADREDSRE
Chain of α5β1 integrin on mouse embryonic fibronectin-null fibroblasts (mouse) (P11688 45-1053, chain 1 of 2): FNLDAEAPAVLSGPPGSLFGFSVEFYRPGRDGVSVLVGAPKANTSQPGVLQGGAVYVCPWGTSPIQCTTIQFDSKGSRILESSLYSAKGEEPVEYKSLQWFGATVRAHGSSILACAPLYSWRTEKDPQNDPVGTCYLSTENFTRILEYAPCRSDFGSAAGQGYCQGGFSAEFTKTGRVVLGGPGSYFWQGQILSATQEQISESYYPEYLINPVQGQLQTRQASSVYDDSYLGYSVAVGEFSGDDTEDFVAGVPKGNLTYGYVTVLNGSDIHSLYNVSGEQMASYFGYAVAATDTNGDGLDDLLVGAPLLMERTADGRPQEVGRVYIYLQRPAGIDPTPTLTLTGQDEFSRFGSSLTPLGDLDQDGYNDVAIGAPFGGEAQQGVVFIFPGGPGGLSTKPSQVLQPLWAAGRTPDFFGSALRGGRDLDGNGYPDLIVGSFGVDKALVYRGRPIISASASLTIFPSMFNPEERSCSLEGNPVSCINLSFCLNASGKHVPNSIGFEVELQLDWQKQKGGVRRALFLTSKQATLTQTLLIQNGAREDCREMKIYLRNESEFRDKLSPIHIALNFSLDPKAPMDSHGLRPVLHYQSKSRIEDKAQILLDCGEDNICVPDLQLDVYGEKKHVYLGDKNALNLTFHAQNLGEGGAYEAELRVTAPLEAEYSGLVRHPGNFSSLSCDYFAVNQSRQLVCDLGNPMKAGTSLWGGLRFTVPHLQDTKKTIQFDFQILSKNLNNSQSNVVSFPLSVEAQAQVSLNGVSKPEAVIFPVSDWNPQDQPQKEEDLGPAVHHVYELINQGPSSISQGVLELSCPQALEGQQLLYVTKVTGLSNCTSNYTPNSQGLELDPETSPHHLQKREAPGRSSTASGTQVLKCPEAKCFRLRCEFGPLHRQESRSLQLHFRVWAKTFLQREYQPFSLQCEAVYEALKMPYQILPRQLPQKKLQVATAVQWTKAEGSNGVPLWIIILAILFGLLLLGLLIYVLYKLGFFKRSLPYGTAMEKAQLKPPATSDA
Chain of α5β1 integrin on mouse embryonic fibronectin-null fibroblasts (mouse) (P09055 21-798, chain 2 of 2, further chain): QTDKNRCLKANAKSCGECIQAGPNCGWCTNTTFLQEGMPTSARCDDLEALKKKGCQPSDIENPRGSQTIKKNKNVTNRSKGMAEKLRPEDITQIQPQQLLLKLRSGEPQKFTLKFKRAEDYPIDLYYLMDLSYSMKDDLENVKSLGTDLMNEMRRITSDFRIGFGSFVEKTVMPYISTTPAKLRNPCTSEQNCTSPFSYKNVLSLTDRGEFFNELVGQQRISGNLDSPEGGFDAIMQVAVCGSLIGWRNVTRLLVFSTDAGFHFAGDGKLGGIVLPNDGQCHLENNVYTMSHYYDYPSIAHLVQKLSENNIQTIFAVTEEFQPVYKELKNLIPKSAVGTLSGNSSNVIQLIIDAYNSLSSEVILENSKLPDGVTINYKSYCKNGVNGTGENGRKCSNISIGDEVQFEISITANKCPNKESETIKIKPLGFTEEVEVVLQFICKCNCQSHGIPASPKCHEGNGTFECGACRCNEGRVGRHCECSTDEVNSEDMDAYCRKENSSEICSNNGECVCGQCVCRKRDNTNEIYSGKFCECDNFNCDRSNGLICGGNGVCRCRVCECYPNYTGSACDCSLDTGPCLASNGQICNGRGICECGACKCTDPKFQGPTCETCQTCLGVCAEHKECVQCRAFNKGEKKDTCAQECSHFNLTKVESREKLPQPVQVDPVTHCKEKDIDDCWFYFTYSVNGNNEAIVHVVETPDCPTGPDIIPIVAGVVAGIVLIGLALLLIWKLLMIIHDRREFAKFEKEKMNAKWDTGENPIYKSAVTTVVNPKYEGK

Substance: Human plasma fibronectin, P02751 32-2477 (other; Alexa^488 label where used as FN^488)
- reduction of FN-null MEF adhesion to full-length fibronectin by α5 integrin-blocking antibody: 53%
- reduction of FN-null MEF adhesion to full-length fibronectin by β1 integrin-blocking antibody: 71.3%
